# B1: Chit36-TA (Trichoderma asperellum CBS 433.97) (protein)
# chain: QNATCALKGKPAGKVLMGYWENWDGAANGVHPGFGWTPIENPIIKQNGYNVINAAFPVILSDGTALWENDMAPDTQVATPAEMCEAKAAGATILLSIGGATAGIDLSSSAVADKFIATIVPILKQYNFDGIDIDIETGLTNSGNINTLSTSQTNLIRIIDGVLAQMPSNFGLTMAPETAYVTGGSITYGSIWGAYLPIIQKYVQNGRLWWLNMQYYNGDMYGCSGDSYAAGTVQGFIAQTDCLNAGLTIQGTTIKVPYDMQVPGLPAQSGAGGGYMNPSLVGQAWDHYNGALKGLMTWSINWDGAGNWTFGDNLLTRIG
# notes: mature protein without native signal peptide, C-terminal His6 (kept), codon-optimized synthetic gene, secreted from Komagataella phaffii BG10, Ni-NTA purified, N-glycosylated (43 kDa)
# Substrate: CC(=O)N[C@H]1[C@H](Oc2ccc3c(C)cc(=O)oc3c2)O[C@H](CO)[C@@H](O[C@@H]2O[C@H](CO)[C@@H](O[C@@H]3O[C@H](CO)[C@@H](O)[C@H](O)[C@H]3NC(C)=O)[C@H](O)[C@H]2NC(C)=O)[C@@H]1O
# Assay: fluorometric 4-methylumbelliferone release, nonlinear regression
# Assay type: biochemical, Trichoderma asperellum
# Settings: 50 mM sodium acetate, pH 4.5, 40 °C, 5-70 µM substrate
# Excerpt: fluorometric 4-methylumbelliferone release, nonlinear regression on Chit36-TA
protein,measurement,value
B1,Km,289 µM
same,Vmax,3 µmol/min/mg

# Source: publication PMC11399303, “Recombinant expression and characterization of the endochitinase Chit36-TA from Trichoderma asperellum in Komagataella phaffii for chitin degradation of black soldier fly exuviae” (Bioprocess and Biosystems Engineering, 2024)
